# Data taken from article PMC10434076.
# Molecular target: Campylobacter jejuni resistance enhancing CmeB (RE-CmeB) multidrug efflux pump (C. jejuni)
# Assay: cryo-EM structure; single-particle cryo-EM of 20 uM RE-CmeB in lipidic nanodiscs (MSP 1E3D1, E. coli total extract lipid; 20 mM Tris-HCl pH 7.5, 100 mM NaCl); apo, with fortuitous hydrolyzed ampicillin, or incubated with 1 mM Cip, Ery or Chl for 2 h on ice
substance,measurement,value
Campylobacter jejuni resistance enhancing CmeB (RE-CmeB) multidrug efflux pump (natural protein),stoichiometry N,3
